The data set has as its system F1*sub RNA substrate (template-directed ligation). In words: fraction ligated after 30 min (ligated reads / total reads); higher = more ligase activity; sequences stand for … in GAGACCGCAACTGAAAAGTTGT…AGTTCTGCACGTAGAAGCAAAAGGC
As to conditions: 42 °C. The protocol:
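Chip-synthesised pool of F1* ligase ribozyme variants (all single and double substitutions, single, double and triple deletions in the catalytic core and GAA bulge, plus designed variants) was transcribed with T7 and reacted as a pool with excess substrate F1*sub for 30 min at 42 C in 50 mM EPPS pH 8.5, 25 mM MgCl2. Ligated and unligated bands were separated by PAGE, barcoded by RT and deep sequenced; fraction ligated = ligated reads / total reads per variant, relative activity = FL / FL of wild type (0.826). Sequences are the DNA template of the ribozyme.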
TACACTTGTCGTAAACACTTTGGATGGGTTA [3d680]: the fraction ligated stood at 0.00723.
Turning to TACACTTGTCGTAAACACTTTGGATGGGTTG [3d681], the fraction ligated was 0.0503.
In turn, TACACTTGTCGTAAACACTTTGGATGGGTTGA [2d57] showed a fraction ligated of 0.0886.
For the sequence TACACTTGTCGTAAACACTTTGGATGGTTGA [3d679], the fraction ligated is 0.101.
As for TACACTTGTCGTAAACACTTTGGTGGGTTGA [3d677], the fraction ligated amounted to 0.0298.
For TACACTTGTCGTAAACATTTGGATGGGTTGA [3d674] the value was 0.457; for TACACTTGTCGTAAACCTTTGGATGGGTTGA [3d673], 0.0569.
In turn, TACACTTGTCGTAACACTTTGGATGGGTTGA [3d660] registered a fraction ligated of 0.00473.
As for TACACTTGTCGTAAGAACTTGGATGGGTTGA [3d693], the fraction ligated is 0.00498.
As for TACACTTGTCGTAAGAACTTTGATGGGTTGA [3d694], the fraction ligated turned out to be 0.00588.
TACACTTGTCGTAAGAACTTTGGAGGGTTGA [3d696] gave a fraction ligated of 0.0171.
Consider TACACTTGTCGTAAGAACTTTGGATGGGTTA [3d698], for which the fraction ligated came to 0.00405.
Consider TACACTTGTCGTAAGAACTTTGGATGGGTTG [3d699], for which the fraction ligated was 0.00593.
TACACTTGTCGTAAGAACTTTGGATGGGTTGA [2d59]: the fraction ligated came out at 0.0167.
Sequence TACACTTGTCGTAAGAACTTTGGATGGTTGA [3d697] showed a fraction ligated of 0.0122.
For TACACTTGTCGTAAGAACTTTGGTGGGTTGA [3d695] the value was 0.0304; for TACACTTGTCGTAAGAATTTGGATGGGTTGA [3d692], 0.123.
TACACTTGTCGTAAGACACTGGATGGGTTGA [3d714]: the fraction ligated came out at 0.191.
Regarding TACACTTGTCGTAAGACACTTGATGGGTTGA [3d715], the fraction ligated is 0.0512.
Turning to TACACTTGTCGTAAGACACTTGGAGGGTTGA [3d717], the fraction ligated is 0.0172.
Consider TACACTTGTCGTAAGACACTTGGATGGGTTA [3d719], for which the fraction ligated was determined as 0.0331.
Under TACACTTGTCGTAAGACACTTGGATGGGTTG [3d720] stands 0.106.
In the case of TACACTTGTCGTAAGACACTTGGATGGGTTGA [2d62], the fraction ligated worked out at 0.183.
TACACTTGTCGTAAGACACTTGGATGGTTGA [3d718]: the fraction ligated is 0.0649.
Under TACACTTGTCGTAAGACACTTGGTGGGTTGA [3d716] stands 0.0903; under TACACTTGTCGTAAGACACTTTATGGGTTGA [3d721], 0.0103.
Under TACACTTGTCGTAAGACACTTTGAGGGTTGA [3d723] stands 0.0442; under TACACTTGTCGTAAGACACTTTGATGGGTTA [3d725], 0.0317; under TACACTTGTCGTAAGACACTTTGATGGGTTG [3d726], 0.0988.
Take TACACTTGTCGTAAGACACTTTGATGGGTTGA [2d63]: the fraction ligated turned out to be 0.194.
Under TACACTTGTCGTAAGACACTTTGATGGTTGA [3d724] stands 0.0498; under TACACTTGTCGTAAGACACTTTGGAGGGTTA [3d732], 0.0323.
Under TACACTTGTCGTAAGACACTTTGGAGGGTTG [3d733] stands 0.0821.
The sequence TACACTTGTCGTAAGACACTTTGGAGGGTTGA [2d65] came in with a fraction ligated of 0.182.
TACACTTGTCGTAAGACACTTTGGAGGTTGA [3d731] displayed a fraction ligated of 0.
TACACTTGTCGTAAGACACTTTGGATGGGTT [3d736] came in with a fraction ligated of 0.00884.
TACACTTGTCGTAAGACACTTTGGATGGGTTA [2d67] gave a fraction ligated of 0.274.
Turning to TACACTTGTCGTAAGACACTTTGGATGGGTTG [2d68], the fraction ligated came out at 0.758.
Regarding TACACTTGTCGTAAGACACTTTGGATGGGTTGA [1d3], the fraction ligated was found to be 0.748.
As for TACACTTGTCGTAAGACACTTTGGATGGTTA [3d734], the fraction ligated was found to be 0.405.
Regarding TACACTTGTCGTAAGACACTTTGGATGGTTG [3d735], the fraction ligated worked out at 0.507.
Under TACACTTGTCGTAAGACACTTTGGATGGTTGA [2d66] stands 0.644.
TACACTTGTCGTAAGACACTTTGGGGGTTGA [3d727] came in with a fraction ligated of 0.0616.
In the case of TACACTTGTCGTAAGACACTTTGGTGGGTTA [3d729], the fraction ligated worked out at 0.00637.
In turn, TACACTTGTCGTAAGACACTTTGGTGGGTTG [3d730] yielded a fraction ligated of 0.035.
The sequence TACACTTGTCGTAAGACACTTTGGTGGGTTGA [2d64] showed a fraction ligated of 0.153.
For TACACTTGTCGTAAGACACTTTGGTGGTTGA [3d728], the fraction ligated was determined as 0.0111.
Turning to TACACTTGTCGTAAGACACTTTGTGGGTTGA [3d722], the fraction ligated was 0.115.
In turn, TACACTTGTCGTAAGACATTGGATGGGTTGA [3d707] gave a fraction ligated of 0.239.
TACACTTGTCGTAAGACATTTGATGGGTTGA [3d708] returned a fraction ligated of 0.0186.
Regarding TACACTTGTCGTAAGACATTTGGAGGGTTGA [3d710], the fraction ligated was 0.0254.
On to TACACTTGTCGTAAGACATTTGGATGGGTTA [3d712], for which the fraction ligated was 0.0725.
TACACTTGTCGTAAGACATTTGGATGGGTTG [3d713] yielded a fraction ligated of 0.324.
TACACTTGTCGTAAGACATTTGGATGGGTTGA [2d61] yielded a fraction ligated of 0.472.
With TACACTTGTCGTAAGACATTTGGATGGTTGA [3d711], the fraction ligated was 0.113.
Under TACACTTGTCGTAAGACATTTGGTGGGTTGA [3d709] stands 0.0505.
TACACTTGTCGTAAGACCTTGGATGGGTTGA [3d700] registered a fraction ligated of 0.222.
TACACTTGTCGTAAGACCTTTGATGGGTTGA [3d701] displayed a fraction ligated of 0.0781.
For TACACTTGTCGTAAGACCTTTGGAGGGTTGA [3d703], the fraction ligated came to 0.0299.
Sequence TACACTTGTCGTAAGACCTTTGGATGGGTTA [3d705] displayed a fraction ligated of 0.136.
Consider TACACTTGTCGTAAGACCTTTGGATGGGTTG [3d706], for which the fraction ligated was found to be 0.659.
TACACTTGTCGTAAGACCTTTGGATGGGTTGA [2d60]: the fraction ligated is 0.625.
Consider TACACTTGTCGTAAGACCTTTGGATGGTTGA [3d704], for which the fraction ligated was found to be 0.358.
Under TACACTTGTCGTAAGACCTTTGGTGGGTTGA [3d702] stands 0.138.
TACACTTGTCGTAAGACTTTGGATGGGTTGA [3d682] showed a fraction ligated of 0.409.
Under TACACTTGTCGTAAGCACTTGGATGGGTTGA [3d685] stands 0.0451; under TACACTTGTCGTAAGCACTTTGATGGGTTGA [3d686], 0.0278.
Sequence TACACTTGTCGTAAGCACTTTGGAGGGTTGA [3d688] registered a fraction ligated of 0.0515.
Take TACACTTGTCGTAAGCACTTTGGATGGGTTA [3d690]: the fraction ligated amounted to 0.0198.
Sequence TACACTTGTCGTAAGCACTTTGGATGGGTTG [3d691] returned a fraction ligated of 0.151.
As for TACACTTGTCGTAAGCACTTTGGATGGGTTGA [2d58], the fraction ligated worked out at 0.183.
Regarding TACACTTGTCGTAAGCACTTTGGATGGTTGA [3d689], the fraction ligated is 0.101.
Turning to TACACTTGTCGTAAGCACTTTGGTGGGTTGA [3d687], the fraction ligated came to 0.114.
In turn, TACACTTGTCGTAAGCATTTGGATGGGTTGA [3d684] came in with a fraction ligated of 0.453.
Under TACACTTGTCGTAAGCCTTTGGATGGGTTGA [3d683] stands 0.0763; under TACACTTGTCGTAGAACTTTGGATGGGTTGA [3d662], 0.145.
TACACTTGTCGTAGACACTTGGATGGGTTGA [3d665] showed a fraction ligated of 0.101.
The sequence TACACTTGTCGTAGACACTTTGATGGGTTGA [3d666] came in with a fraction ligated of 0.0743.
Take TACACTTGTCGTAGACACTTTGGAGGGTTGA [3d668]: the fraction ligated was determined as 0.146.
For TACACTTGTCGTAGACACTTTGGATGGGTTA [3d670] the value was 0.0913.
Sequence TACACTTGTCGTAGACACTTTGGATGGGTTG [3d671] registered a fraction ligated of 0.514.
The sequence TACACTTGTCGTAGACACTTTGGATGGGTTGA [2d56] yielded a fraction ligated of 0.617.
With TACACTTGTCGTAGACACTTTGGATGGTTGA [3d669], the fraction ligated is 0.524.
TACACTTGTCGTAGACACTTTGGTGGGTTGA [3d667] showed a fraction ligated of 0.0835.
For TACACTTGTCGTAGACATTTGGATGGGTTGA [3d664] the value was 0.464.
The sequence TACACTTGTCGTAGACCTTTGGATGGGTTGA [3d663] registered a fraction ligated of 0.173.
For TACACTTGTCGTAGCACTTTGGATGGGTTGA [3d661] the value was 0.0075.
In the case of TACACTTGTCGTGACACTTTGGATGGGTTGA [3d659], the fraction ligated stood at 0.0318.
In turn, TACACTTGTCTAAACACTTTGGATGGGTTGA [3d634] gave a fraction ligated of 0.177.
In the case of TACACTTGTCTAAGAACTTTGGATGGGTTGA [3d636], the fraction ligated amounted to 0.116.
Under TACACTTGTCTAAGACACTTGGATGGGTTGA [3d639] stands 0.087; under TACACTTGTCTAAGACACTTTGATGGGTTGA [3d640], 0.0986; under TACACTTGTCTAAGACACTTTGGAGGGTTGA [3d642], 0.115.
Take TACACTTGTCTAAGACACTTTGGATGGGTTA [3d644]: the fraction ligated amounted to 0.131.
The sequence TACACTTGTCTAAGACACTTTGGATGGGTTG [3d645] gave a fraction ligated of 0.595.
